± gives the uncertainty stated by the source.
Experiment: amyloid nucleation score (Sup35N fusion, yeast selection) (log enrichment); library NNK2; higher = more nucleation; inactive = no reads after selection
How it was run: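 Peptides of 20 random codons fused to Sup35N were expressed in psi-negative yeast, induced 24 hours with 100 μM copper sulfate, then grown 7 days at 30°C on medium lacking adenine and uracil. Input and output plasmid inserts were Illumina-sequenced. Nucleation score is the DiMSum log enrichment of output over input reads, centred on the mode score of non-aggregating sequences, excluding sequences with under 100 input reads. Random libraries had three technical output replicates.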

Row | Substance | amyloid nucleation score
1 | VVRHSLKRL | -0.228 ± 1.1
2 | KIRTNALYLL | -0.298 ± 0.29
3 | FYRSGEHRRSCRVRVVYGEL | 0.397 ± 0.64
4 | SVFSYMYRLNSALLYFFYQS | inactive
5 | GVNARQGSHDLVLRIVR | 7.39 ± 0.075
6 | TMLSESTVQTKRVRMQESRR | 7.03 ± 0.071
7 | DIFITTSSFTLRCAYIIKGI | -1.44 ± 0.78
8 | KFRMDGGFILNVVHKQHNMV | 0.023 ± 0.8
9 | GILYFLFVLSSVGDVCRLLV | -0.709 ± 0.63
10 | FNCTRKNLCFFGIVYSSIIT | -0.86 ± 0.63
11 | RESWLAGMSVYWANSGMSFA | -0.487 ± 0.36
12 | MFRVARFSKAYDCTHFVING | 0.546 ± 0.8
13 | RIDILGVTRWN | 0.633 ± 0.3
14 | STRVWWDSWMFWLNEK | -0.607 ± 1
15 | FFWYWYASYEHARTSYSIRV | inactive
16 | VYVFDIVRLG | 0.465 ± 0.8
17 | LVWPTYVGDQAGSCVPGVFP | 4.51 ± 0.068
18 | KGFNKY | -0.911 ± 0.43
19 | GRSFFMF | 2.5 ± 0.091
20 | LFGGRGKRVRLKVLLTQRF | -0.37 ± 0.32
21 | AYHRWSTVLWILTYWTLRMC | 0.053 ± 1.1
22 | CIFFPRGSNFFLFQMCGLSF | 3.83 ± 0.097

Row | Substance | amyloid nucleation score
23 | SELPDIRWHTGWMFLSCAWN | -0.397 ± 0.63
24 | FIYQFHVVFLVCQGHNNLYT | 3.6 ± 0.071
25 | NLLYKMTMWTKFGRLSSCCK | 0.001 ± 0.42
26 | YYGALWRYAGMSG | -0.472 ± 0.3
27 | WWTVKLLMSEVVFRWELEYI | 5.735 ± 0.04
28 | YRPQATGLGSRGRR | 0.81 ± 0.43
29 | ALLFYGKMY | 5.966 ± 0.052
30 | HLTNLDFT | -1.1 ± 0.44
31 | TLHNYCYPMIRSCGQSPGRF | 0.208 ± 1.1
32 | TWDVNVLHVYLSMSSTTLHF | -0.46 ± 0.45
33 | WTYGVTRLSSLCSAIDLSLG | -0.598 ± 1.1
34 | RSHAT | 0.579 ± 0.33
35 | SRSAWLRELDPPA | 0.839 ± 0.43
36 | AMGVC | -0.061 ± 0.41
37 | FISHIYLNESQQKSSALNTL | -1.32 ± 0.53
38 | HRDKLKVSPQITRSSFRRLS | 0.423 ± 0.26
39 | DDGMCRRYCLGRKYTMGIEL | 1.78 ± 0.14
40 | FGSIHGGRDEGPFLLGSSNV | -0.675 ± 1.1
41 | HSVLEYFVTLCSNFLLWWVL | -0.192 ± 0.65
42 | LFSTYRNFIFVIHSADMCKS | -0.558 ± 1
43 | VDRFFLEARCLELTSQ | 0.34 ± 0.5
44 | YMLWGWFFLNGFYTVIGIVP | inactive

Row | Substance | amyloid nucleation score
45 | WRNLDLK | -0.562 ± 1.1
46 | MLKQSGDSVAHCLGKTGSQM | 0.371 ± 0.35
47 | VMFWLPPTSGNSWSDCTHKI | inactive
48 | NPALVFIHA | inactive
49 | SSLVVMMGILMEVTVAGLGV | 0.241 ± 0.37
50 | RYRSTLQYISVMGLDNT | -0.608 ± 0.54
51 | NSVFKGFLNRFRF | 2.32 ± 0.19
52 | EDVYKRTQRDWDCLILYQRY | -0.765 ± 0.76
53 | ECERERYLLGTRT | 0.322 ± 0.25
54 | SYGIAWTIMT | -0.701 ± 0.45
55 | REEGFS | -1.29 ± 0.54
56 | FCPRGFTLSSKFLCLNSLRM | -0.344 ± 0.33
57 | NALADRRFTISPRIFAYLLL | 0.312 ± 0.65
58 | ASIGY | 0.663 ± 0.22
59 | SCEVVSRKL | 1.08 ± 0.22
60 | RTRRSSTGGRNEASGNRSAG | 2.87 ± 0.13
61 | RLKGGFVEGPSGRVTCVRIT | 0.132 ± 0.38
62 | KRHMVSS | 1.72 ± 0.42
63 | RFVYMLVCIELVG | -0.953 ± 0.78
64 | HPGMDF | inactive
65 | CHFSYKECRSAVRMLQYNGA | 2.54 ± 0.13
66 | LKPCLRFFNIIT | 3.44 ± 0.1

Row | Substance | amyloid nucleation score
67 | GHLLASKLLQSSYETCS | 0.286 ± 0.62
68 | LCSTHVMKLWFYVSFLLF | -0.397 ± 0.78
69 | AYTFSNSVNVCCVGVLEVIV | 5.8 ± 0.077
70 | DKANRDQWHQAKSSVCFGGV | 0.089 ± 0.56
71 | YTCRYRFTLNQTSSRRFSFW | 1.35 ± 0.13
72 | LSMELNVYVERWWFSKLDRG | -1.26 ± 0.49
73 | YVCVYTDF | -1.38 ± 0.55
74 | DYANELVA | 0.099 ± 0.25
75 | LELVCRPISMSGWSGYHTCR | 0.983 ± 0.41
76 | LCIPSVTTDS | inactive
77 | YNKRVSWKYWMWHEYAMRGW | 5.21 ± 0.057
78 | LVISLSISCAGKRVAQSHMG | -0.951 ± 0.76
79 | TGSRNIWTRVVFLYCFRVHG | -0.939 ± 0.54
80 | GFVERNMYAVDNDFYVQNQT | -1.2 ± 0.56
81 | APVLSDN | -0.07 ± 0.49
82 | IFEAVVRVG | inactive
83 | LCMRTFGLHHCPGYG | 1.2 ± 0.37
84 | YYSWFSVYSIIILHNQQFRL | inactive
85 | NYIWVLGYSEVGNTIMYTYH | 6.224 ± 0.05
86 | VSMIVGSDNVPVSFETDVSV | 1.01 ± 0.39
87 | CLWVSMDGHSFWRKFNAVI | inactive
